Laboratory results from the supplement of paper PMC9112550, “Optimization of the antimicrobial peptide Bac7 by deep mutational scanning” (BMC Biology, 2022).

system: Escherichia coli TOP10; experiment: shrunken log2 fold change of peptide-encoding DNA abundance (4.5 h post-induction vs induction); higher = less antimicrobial activity (less host growth inhibition); conditions: time post-induction: 4.5 h; library: site-saturation at positions 5, 18, 19, 20
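Also: peptides expressed intracellularly from a pBAD plasmid library in pooled LB shake-flask culture, induced with 0.3% L-arabinose, DNA abundance read by NGS, three biological replicates, DESeq2 with apeglm shrinkage.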

RRIRQRPPRLPRPRPRPHEMPRP and RRIRNRPPRLPRPRPRPCLVPRP are within 0.2 log units of each other in “shrunken log2 fold change” value: -0.111 for the first, 0.0322 for the second.

First: RRIRTRPPRLPRPRPRPHGKPRP
Second: RRIRWRPPRLPRPRPRPGFAPRP
The “shrunken log2 fold change” value of the first is lower: -0.209 for the first, 0.382 for the second.

RRIRSRPPRLPRPRPRPVDVPRP and RRIRYRPPRLPRPRPRPMYGPRP are within 0.2 log units of each other in “shrunken log2 fold change” value: 0.126 for the first, -0.00999 for the second.

Going from RRIRRRPPRLPRPRPRPDSDPRP to RRIRHRPPRLPRPRPRPRSIPRP, the “shrunken log2 fold change” value falls from 0.021 to -0.374.

Going from RRIRTRPPRLPRPRPRPNNIPRP to RRIRDRPPRLPRPRPRPNRDPRP, the “shrunken log2 fold change” value rises from -0.695 to -0.0372.

First: RRIRQRPPRLPRPRPRPEQKPRP
Second: RRIRMRPPRLPRPRPRPFMVPRP
The “shrunken log2 fold change” value of the first is higher: 0.039 for the first, -0.161 for the second.

Going from RRIRKRPPRLPRPRPRPTGDPRP to RRIRKRPPRLPRPRPRPTIRPRP, the “shrunken log2 fold change” value falls from 0.727 to -0.241.

Compared with RRIRIRPPRLPRPRPRPGGMPRP, RRIRDRPPRLPRPRPRPQMPPRP is lower in “shrunken log2 fold change” value: -0.0648 for the first, -0.486 for the second.

Compared with RRIRARPPRLPRPRPRPCFQPRP, RRIRNRPPRLPRPRPRPFSYPRP is lower in “shrunken log2 fold change” value: 0.105 for the first, -0.171 for the second.

Compared with RRIRARPPRLPRPRPRPMESPRP, RRIRERPPRLPRPRPRPWNCPRP is lower in “shrunken log2 fold change” value: 0.0501 for the first, -0.327 for the second.

First: RRIRNRPPRLPRPRPRPNYHPRP
Second: RRIRGRPPRLPRPRPRPPAYPRP
The “shrunken log2 fold change” value of the first is lower: -0.801 for the first, 0.532 for the second.

Going from RRIRRRPPRLPRPRPRPCTYPRP to RRIRSRPPRLPRPRPRPHEQPRP, the “shrunken log2 fold change” value rises from -0.27 to 0.128.

RRIRIRPPRLPRPRPRPDFVPRP and RRIRSRPPRLPRPRPRPYQRPRP are within 0.2 log units of each other in “shrunken log2 fold change” value: -0.0852 for the first, -0.103 for the second.

Compared with RRIRCRPPRLPRPRPRPCMLPRP, RRIRYRPPRLPRPRPRPVNWPRP is higher in “shrunken log2 fold change” value: -0.758 for the first, -0.0321 for the second.

RRIRERPPRLPRPRPRPATWPRP and RRIRRRPPRLPRPRPRPNVHPRP are within 0.2 log units of each other in “shrunken log2 fold change” value: -0.014 for the first, -0.203 for the second.

RRIRIRPPRLPRPRPRPVPDPRP and RRIRERPPRLPRPRPRPGHCPRP are within 0.2 log units of each other in “shrunken log2 fold change” value: -0.0498 for the first, 0.0591 for the second.

Going from RRIRRRPPRLPRPRPRPTCMPRP to RRIRSRPPRLPRPRPRPYCQPRP, the “shrunken log2 fold change” value falls from 0.315 to -0.164.

First: RRIRCRPPRLPRPRPRPQESPRP
Second: RRIRYRPPRLPRPRPRPWGSPRP
The “shrunken log2 fold change” value of the first is higher: 0.192 for the first, -0.482 for the second.

First: RRIRGRPPRLPRPRPRPELNPRP
Second: RRIRIRPPRLPRPRPRPKSNPRP
The “shrunken log2 fold change” value of the first is higher: 0.724 for the first, -0.673 for the second.

RRIRWRPPRLPRPRPRPSEAPRP and RRIRIRPPRLPRPRPRPYPDPRP are within 0.2 log units of each other in “shrunken log2 fold change” value: 0.0701 for the first, -0.039 for the second.

RRIRCRPPRLPRPRPRPIGTPRP and RRIRQRPPRLPRPRPRPYRHPRP are within 0.2 log units of each other in “shrunken log2 fold change” value: -0.279 for the first, -0.268 for the second.

RRIRSRPPRLPRPRPRPRWEPRP and RRIRCRPPRLPRPRPRPEMWPRP are within 0.2 log units of each other in “shrunken log2 fold change” value: 0.275 for the first, 0.166 for the second.

RRIRPRPPRLPRPRPRPKLVPRP and RRIRWRPPRLPRPRPRPMLYPRP are within 0.2 log units of each other in “shrunken log2 fold change” value: 0.0371 for the first, 0.0136 for the second.

First: RRIRDRPPRLPRPRPRPPDWPRP
Second: RRIRFRPPRLPRPRPRPWQDPRP
The “shrunken log2 fold change” value of the first is higher: 0.421 for the first, -0.00804 for the second.

RRIRFRPPRLPRPRPRPKQIPRP and RRIRVRPPRLPRPRPRPASLPRP are within 0.2 log units of each other in “shrunken log2 fold change” value: -0.218 for the first, -0.372 for the second.

Going from RRIRRRPPRLPRPRPRPGLHPRP to RRIRQRPPRLPRPRPRPIIIPRP, the “shrunken log2 fold change” value falls from 0.0196 to -0.197.

RRIRWRPPRLPRPRPRPENRPRP and RRIRARPPRLPRPRPRPAKPPRP are within 0.2 log units of each other in “shrunken log2 fold change” value: -0.0139 for the first, 0.127 for the second.

RRIRHRPPRLPRPRPRPWWDPRP and RRIRKRPPRLPRPRPRPNFIPRP are within 0.2 log units of each other in “shrunken log2 fold change” value: -0.0461 for the first, -0.144 for the second.

RRIRNRPPRLPRPRPRPKRHPRP and RRIRSRPPRLPRPRPRPFPMPRP are within 0.2 log units of each other in “shrunken log2 fold change” value: -0.455 for the first, -0.264 for the second.

Going from RRIRLRPPRLPRPRPRPQKHPRP to RRIRLRPPRLPRPRPRPTCTPRP, the “shrunken log2 fold change” value rises from -0.299 to -0.0583.

Going from RRIRSRPPRLPRPRPRPRWWPRP to RRIRLRPPRLPRPRPRPIVKPRP, the “shrunken log2 fold change” value falls from 1.26 to -0.0195.

RRIRYRPPRLPRPRPRPKGLPRP and RRIRERPPRLPRPRPRPNQAPRP are within 0.2 log units of each other in “shrunken log2 fold change” value: -0.0102 for the first, -0.0316 for the second.

Compared with RRIRRRPPRLPRPRPRPPVWPRP, RRIRYRPPRLPRPRPRPLWSPRP is lower in “shrunken log2 fold change” value: 0.328 for the first, 0.0381 for the second.

Compared with RRIRKRPPRLPRPRPRPIAAPRP, RRIRMRPPRLPRPRPRPFLVPRP is lower in “shrunken log2 fold change” value: 0.317 for the first, -0.0501 for the second.

RRIRARPPRLPRPRPRPIKQPRP and RRIRARPPRLPRPRPRPRNRPRP are within 0.2 log units of each other in “shrunken log2 fold change” value: -0.0628 for the first, 0.0657 for the second.

Going from RRIRARPPRLPRPRPRPGHGPRP to RRIRLRPPRLPRPRPRPCYSPRP, the “shrunken log2 fold change” value falls from 0.377 to -0.142.

Compared with RRIRPRPPRLPRPRPRPTMWPRP, RRIRFRPPRLPRPRPRPQWNPRP is lower in “shrunken log2 fold change” value: 0.457 for the first, -0.345 for the second.

First: RRIRRRPPRLPRPRPRPKCYPRP
Second: RRIRTRPPRLPRPRPRPYWLPRP
The “shrunken log2 fold change” value of the first is higher: 0.00463 for the first, -0.486 for the second.

RRIRVRPPRLPRPRPRPIKSPRP and RRIRFRPPRLPRPRPRPFFRPRP are within 0.2 log units of each other in “shrunken log2 fold change” value: -0.184 for the first, -0.213 for the second.

Going from RRIRFRPPRLPRPRPRPARGPRP to RRIRHRPPRLPRPRPRPYQVPRP, the “shrunken log2 fold change” value falls from 0.624 to -0.0252.

RRIRVRPPRLPRPRPRPNGGPRP and RRIRFRPPRLPRPRPRPRTHPRP are within 0.2 log units of each other in “shrunken log2 fold change” value: 0.0985 for the first, 0.114 for the second.

RRIRHRPPRLPRPRPRPMTEPRP and RRIRFRPPRLPRPRPRPREVPRP are within 0.2 log units of each other in “shrunken log2 fold change” value: 0.0178 for the first, 0.199 for the second.

Going from RRIRGRPPRLPRPRPRPMYRPRP to RRIRRRPPRLPRPRPRPMITPRP, the “shrunken log2 fold change” value falls from 0.115 to -0.172.

Compared with RRIRVRPPRLPRPRPRPNERPRP, RRIRVRPPRLPRPRPRPSYAPRP is lower in “shrunken log2 fold change” value: 0.0435 for the first, -0.477 for the second.

Compared with RRIRYRPPRLPRPRPRPLCDPRP, RRIRCRPPRLPRPRPRPAYIPRP is lower in “shrunken log2 fold change” value: -0.12 for the first, -0.628 for the second.

First: RRIRPRPPRLPRPRPRPYDYPRP
Second: RRIRGRPPRLPRPRPRPRHIPRP
The “shrunken log2 fold change” value of the first is lower: -0.355 for the first, 0.192 for the second.

First: RRIRCRPPRLPRPRPRPCCWPRP
Second: RRIRCRPPRLPRPRPRPGCTPRP
The “shrunken log2 fold change” value of the first is higher: 0.103 for the first, -0.279 for the second.

Compared with RRIRIRPPRLPRPRPRPNVKPRP, RRIRTRPPRLPRPRPRPSKTPRP is higher in “shrunken log2 fold change” value: -0.163 for the first, 0.0543 for the second.

First: RRIRWRPPRLPRPRPRPLSWPRP
Second: RRIRERPPRLPRPRPRPIFHPRP
The “shrunken log2 fold change” value of the first is higher: 0.0993 for the first, -0.395 for the second.

Going from RRIRSRPPRLPRPRPRPHIYPRP to RRIRGRPPRLPRPRPRPQLRPRP, the “shrunken log2 fold change” value rises from -0.607 to 0.139.

Going from RRIRPRPPRLPRPRPRPGLVPRP to RRIRSRPPRLPRPRPRPVKMPRP, the “shrunken log2 fold change” value falls from 0.287 to 0.0674.

Going from RRIRERPPRLPRPRPRPHAVPRP to RRIRLRPPRLPRPRPRPYENPRP, the “shrunken log2 fold change” value rises from -0.34 to -0.0259.

Going from RRIRNRPPRLPRPRPRPQIMPRP to RRIRPRPPRLPRPRPRPFAMPRP, the “shrunken log2 fold change” value rises from -0.127 to 0.0938.

RRIRWRPPRLPRPRPRPDYCPRP and RRIRYRPPRLPRPRPRPWQNPRP are within 0.2 log units of each other in “shrunken log2 fold change” value: -0.0321 for the first, -0.103 for the second.

For RRIRRRPPRLPRPRPRPPHRPRP, the “shrunken log2 fold change” value was 1.36.
